According to patent US20090221985A1, “SYSTEM FOR IONTOPHORETIC TRANSDERMAL DELIVERY OF POLYMERIC AGENTS AND METHODS OF USE THEREOF” (priority 2005, published 2009):

Legend:
Assay type in all cases: in vitro ADME
[1] = Iontophoretic delivery of collagen through intact (untreated) pig ear skin piece, Bradford assay; conditions: untreated 1.5 mm pig ear skin; 15V DC, 0.1 mA, 30 min; collected in 5 min intervals (FIGS. 3 and 4)
Protocol: Measurements were performed on collagen delivery through a 1.5 mm thick pig ear skin. The skin piece was obtained by slicing with scalpel a 1.5 mm thick section of a pig ear and fixed it over a 2 cm diameter laboratory vial. The vial was filled with a 50 ml solution of 0.05% NaCl in water to contact with the skin piece.
The experiment was performed by measuring the amount of collagen transmitted through the skin piece into the vial's solution by iontophoresis.
(§1) Collagen (100 mg/ml; Sigma) was dissolved in 10 mM sodium phosphate pH 8 containing 150 mM NaCl or in 10 mM sodium phosphate pH 8 containing 150 mM NaCl to which 10 mM glutamic acid solution was added (0.2 ml of glutamic acid were added to 1 ml of collagen to yield pH 4.0), and the glutamic acid solution was incubated at room temperature for 1 hour. Thus, positively charged collagen was driven into the skin by the positive electrode and negatively charged collagen was driven by the negative electrode. The amount of collagen transmitted through the skin was measured by the Bradford assay (Bradford M. M. Anal Biochem. 72, 248-254, 1976).
The experiments were performed at a 15V DC applied voltage and at a current of 0.1 mA for 30 min.
The amount of collagen collected in 5 min intervals was measured by the Bradford reagent.

[2] = Iontophoretic delivery of collagen through pig ear skin treated by chemical microporation, Bradford assay; conditions: Silver Nitrite microporated skin, 15V, 1 h
Protocol: as §1
Pig ear skin piece was treated by chemical microporation using Silver Nitrite and then iontophoresis of collagen was performed as follows:
Twenty ml reservoir was mounted over the skin piece allowing its wetting (FIG. 5). Iontophoretic transmission experiment using the same solutions as described in Example 1 herein above was performed on each sample. Electrodes were placed in the upper and lower reservoirs. At the end of the experiment the amount of collagen transmitted through the skin was measured by the Bradford assay (Bradford M. M. Anal Biochem. 72, 248-254, 1976). The iontophoresis was performed under the following conditions: 1. Distance between electrodes (upper and lower reservoir)—2 cm;

[3] = Iontophoretic delivery of hyaluronic acid (with BSA) through pig ear skin treated by chemical microporation; conditions: Silver Nitrite microporated skin, iontophoresis as in Example 1
Protocol: Bovine serum albumin (BSA; Sigma) was dissolved in 10 mM sodium phosphate pH 7.2 containing 0.15 M NaCl to yield BSA concentration of 10 mg/ml. Hyaluronic acid suspension (1 mg; Q-Med) was incubated with 0.1 ml of the BSA solution at 40° C. In addition, 0.1 ml glutamic acid (10 mM) was added to another sample of the hyaluronic acid-BSA solution to yield pH 4.0. Piece of a pig ear skin was exposed to chemical microporation using Silver Nitrite and then iontophoretic delivery of the complex was performed as described in Example 1 herein above.
Hyaluronic acid transmitted through the pig ear was stained by complexation with a copper phtalocyanin dye and measured by the Bradford reagent.

Row | Substance | collagen transmitted through the skin piece by iontophoresis [1] | Transmitted amount ([2]; initial amount 0.1 mg) | Transmitted amount (%) ([2]; initial amount 0.1 mg) | Transmitted amount ([2]; initial amount 0.5 mg) | Transmitted amount (%) ([2]; initial amount 0.5 mg) | Transmitted amount ([2]; initial amount 1.0 mg) | Transmitted amount (%) ([2]; initial amount 1.0 mg) | Transmitted amount ([2]; initial amount 10.0 mg) | Transmitted amount (%) ([2]; initial amount 10.0 mg) | Transmitted amount ([2]; initial amount 20.0 mg) | Transmitted amount (%) ([2]; initial amount 20.0 mg) | Transmitted amount ([3]; initial amount 0.01 mg) | Transmitted amount (%) ([3]; initial amount 0.01 mg) | Transmitted amount ([3]; initial amount 0.05 mg) | Transmitted amount (%) ([3]; initial amount 0.05 mg) | Transmitted amount ([3]; initial amount 0.1 mg) | Transmitted amount (%) ([3]; initial amount 0.1 mg)
1 | Collagen | iontophoretically transmitted through the piece of pig ear skin | 0.04 mg | 40% | 0.3 mg | 60% | 0.48 mg | 48% | 5.6 mg | 56% | 11.0 mg | 55% | – | – | – | – | – | –
2 | Hyaluronic acid | – | – | – | – | – | – | – | – | – | – | – | 0.007 mg | 70% | 0.030 mg | 60% | 0.046 mg | 46%
